Measured values published in the DeepSol protein solubility set.

test: soluble on expression in E. coli; label from the status in PepcDB or PDB records

| Sequence | soluble on expression in E. coli |
| --- | --- |
| MTNEEPVPSTSSVLSAAEKNVKIETPSRKRKGLDIDALWRKKFKDVENQKSPEKSEKSEKTIKEEPLETHPSGERKLRSASKDSKSLSKETHNTISTRSSSSGTPRKKMEPEDVKPNIKMLKKSLPVSFQCSNLNDGTVGDASVMLDPTKISLHSSSVAYGEESQDEMEVIQHSTDDPNGTREEFDYNQIEYGNAVTPNGTYTLYAPDSNYAPYYQYSNNMQSSPQDNAPYLVPAPQSPVSIDDADSINLPNNQRASPATVNWLFENYEIGEGSLPRCELYDHYKKHCAEHRMDPVNAASFGKLIRSVFHNLKTRRLGTRGNSKYHYYGIRLKDSSTLHSMQHPQPQIIQNTYTPPMQLPQRDAYADTVNQVAAIKYMDVEIPDKRARKDNSSSSSSCRDSVSPCMDLPAQQTIQHTPVHSVIPSTQQPAPLHNNNVVSYVVTESDKAAMGKIDLPIVPFPDKDALMATIGFRKLGVGEEELNSLIDIYEILCREILALIKNIDFASVEDTWSKFWSGNFGVDRDHISALCTLDQVQDYIIEVDLALYQTIVDTLIPNVLLSELSTGMTQTCRTFAKNIDVYLRKSLMLANLGEFFVKKKIQAIKYLQQGLKRYTSLNHLAHASRGVLMKPEQVQQMYQDYIRVDINTVHQQAGWICGCDSVMVHHVNNAFKHNLQRMSAMEVWAEWLESIVDQVLAKYHDKPANVIANVGKQFLLNWSFYTSMIIRDLTLRSAMSFGSFTLIRLLADDYMYYLIESKIAKAGKQQLITVIRADKDWPLTTNPQEYIVVANDNDEDLDLEKAGLL | not soluble |
| KAFTPDEAARFYAAARADRWGWPLAFMLATGLRPGEALGLTWADVTMRGSAEGGTLAAVVHIERTRSVSGGRVYEDTPKTERGRRSLTVTGDAARLLLDARAQAEREAGARLRHNGREYQSTGYVFVTRAGTPYRPDNLRRPMARLCQAVGVPVLTPHKLRHTWASVQAAAGVPVEVLSAELGHAAPSFTRDTYRHVYESERASLTYDPLTPAAAPAPEPEPQGRKRV | not soluble |
| GPGSMSLVESQKDMADLLPCNEECGGDYGRYSFGQTDTEVIVKVPLPSDTPTKMINVDVKVSSLTIGMKGQSPLISGDLYKPVKVDECTWCVEDKSVLVVTLVKTNAQYEEWWPCVTTNERQIDMKTFRPPSKHISELDDSARATIAKMMFDQRQKALNLPSSDELRLRELMQRGGTSN | soluble |
| MPSNCRRFEGKVAIVTAATKGIGLAIAERLLDEGASVVIGSRNQKNVDEAIEYLKNKGLTKVAGIAGHIASTDDQKKLVDFTLQKFGKINILVNNHGINPAFGHILEVSDQVWDKLFEVNVKAGFQMTKLVHPHIAKEGGGAIIFNASYSAYKSPPGIAAYGVTKTTLVGLTRALAMGLAKDNIRVNGIAPGVIKTKMSQVLWDGGEDAEKELTDIQEIALGRLGVPDDCAGTVAYLASDDSSYITGEMIIIAGGVQARL | not soluble |
| MKSAWMEKTYTIDGCAFHTQHRKGSSGVTIVFEAGYGTSSETWKPLMADIDDEFGIFTYDRAGIGKSGQSRAKRTADQQVKELESLLKAADVKPPYLAVSHSYGAVITGLWACKNKHDIIGMVLLDPALGDCASFTFIPEEMHKSHTRKMMLEGTHAEFSKSLQELKKRQVHLGNMPLLVLSSGERTEKFAAEQEWQNLHSSILSLSNQSGWIQAKNSSHNIHHDEPHIVHLAIYDVWCAACQQAAPLYQAVN | not soluble |
| DTDGLWAALTEAAASVEKLLATLPEHGARSSAERAEIAAAHDAARALRVRFLDTHADAVYDRLTDHRRVHLRLAELVEAAATAFPGLVPTQQQLAVERSLPQAAKEGHEIDQGIFLRAVLRSPLAGPHLLDAMLRPTPRALELLPEFVRTGEVEMEAVHLERRDGVARLTMCRDDRLNAEDGQQVDDMETAVDLALLDPGVRVGLLRGGVMSHPRYRGKRVFSAGINLKYLSQGGISLVDFLMRKELGYIHKLVRGVLTNDDRPGWWHSPRIEKPWVAAVDGFAIGGGAQLLLVFDRVLASSDAYFSLPAAKEGIIPGAANLRLGRFAGPRVSRQVILEGRRIWAKEPEARLLVDEVVEPDELDAAIERSLTRLDGDAVLANRRMLNLADESPDGFRAYMAEFALMQALRLYGHDVI | soluble |
| MGSSHHHHHHSSGLVPRGSMGFKVKLEKRRNAINTCLCIGLDPDEKDIENFMKNEKENNYNNIKKNLKEKYINNVSIKKDILLKAPDNIIREEKSEEFFYFFNHFCFYIINETNKYALTFKMNFAFYIPYGSVGIDVLKNVFDYLYELNIPTILDMKINDIGNTVKNYRKFIFEYLKSDSCTVNIYMGTNMLKDICYDEEKNKYYSAFVLVKTTNPDSAIFQKNLSLDNKQAYVIMAQEALNMSSYLNLEQNNEFIGFVVGANSYDEMNYIRTYFPNCYILSPGIGAQNGDLHKTLTNGYHKSYEKILINIGRAITKNPYPQKAAQMYYDQINAILKQNMES | soluble |
| NPNPISIPIDLSQAGSVVEKEVKIEESWSYHLILQFAVHDRKEDGGLDGKRVWKFLGFNSYDPRDGKQVGYVDYRLAKSELGDLIDETYDCDGTVVPIKITIHQINQDNTKKLIADNLYMTKGNGSGAYTRDITTISLDKGKYIFRIENIEAFSEMIGRKVDFTIYINKRDK | soluble |
| MGSDKIHHHHHHMNIFQQLEHSKAPAAVRLVMVIDYIAKRDEASFTEICTDLSIPKSSVHHLLEVLVVTQLLRQRADGRYVLGLRLFELGGLVIKNIDLRKDTINFMHELVKETELTCHLGIMDGDNGFFLSKVESPKAIVKTSWEGKKIVFNRMSLGKVLVAWLPQERIESLIADCSFEYLTPRTITNKDDFLQHLKTVKEQGWAIDDGEDIEEICCMAAPIFNQNGDVIAAIGVNGMQSQYANGKKEKHLASLIKTSKAITAHINSRNIDIR | not soluble |
| MELQQRTLTIGLGNDIAVQTEGVGFIRGQLVADHAEINSVFKVVVKAALIVVKTLFADGYPHAIFQRFLMPDNRNRQHRADKAVGLVGIADDAEIRIAFCLISNAFFFTELIIGIGCGKADCGHFFVVFAAGSASVHKVSDFQNEFAVKPFAGKQHPHQYIGNHAGINRPPIISPQPCQQSGKRPVDYKKYAPNLRYPAGIAHGFFRQVGLLQPRKFFNHRLPGKQAAAEHRQHHQIDEDGIPIHRIMPPEHQYCGKKQCNKQSRITLLGQFGSQGAQQPQPAHRRRQPNKPARLPAVYSGLTKTSTALPRLAVLSAASSPCPDFC | not soluble |
| MAHHHHHHMLRCSMLRRSMGPGASYVNTVFDTVAKRYDLMNDLLSLGIHRRWKQHFVNDYVRPCPGGKFLDVAGGTGDIAFRIIDGVRLKEEVFGLVPTLRYLTEVVVLDANENMIREGEARAAREGYLDVKWVIGKGEELPFDDMSFDSYTVSFGIRNFSDRPKALREAYRVLKVGGVLNVLEFSKVTCPFLSLPYDVWSYGFIPMAGQILVDRESYQYLVDSIRAFPDQEEFAKMISDAGFGYVRYENLTGGIACIHTAVKTEAVRVKPEKSPLESVATKAKEEKNSVDDEQLNPA | not soluble |
| NRSLNELSLSDILIAADVEGGLHAVDRRNGHIIWSIEPENFQPLIEIQEPSRLETYETLIIEPFGDGNIYYFNAHQGLQKLPLSIRQLVSTSPLHLKTNIVVNDSGKIVEDEKVYTGSMRTIMYTINMLNGEIISAFGPGSKNGYFGSQSVDCSPEEKIKLQECENMIVIGKTIFELGIHSYDGASYNVTYSTWQQNVLDVPLALQNTFSKDGMCIAPFRDKSLLASDLDFRIARWVSPTFPGIIVGLFDVFNDLRTNENILVPHPFNPGDHESISSNKVYLDQTSNLSWFALSSQNFPSLVESAPISRYASSDRWRVSSIFEDETLFKNAIMGVHQIY | soluble |
| MGLIPPKWLERMVEAYRDPSLERAVYGEVLTRSDIERLLSETPLHPMAAAADYYARVIKKGVGSYIVNIYLAYTNVCVTRCTFCDFYVPPERRSSGYTHPPEHLGRVAGLARKRLGVREVHMVGGNDPELPLEYYEEAIREIKRVAPGVVLKAFTAEEIGFIAKATGNTPKEVLARFREAGLDALPGGGAEVLSEEVRKRIAPLKISSDEYLEIHRLAHSMGIRSNITLLYAHIEEPRHVAEHLYRIRRLQEETGGFISFIPIRFNPGKTPLSRHPEYVKKGDRGGLYDLRIVAASRLALLGAIDNIMAYWVSMGEKLAQAALSHGANDIGGTFYNESVISAASSLRKRKGMSPARLVFNIATAGWTPMERDTFYNYYPPRAEPPRLPWMQG | not soluble |
| MAHHHHHHMEYMHHIQGVVVLNDSGNRVFVKYYLNEDMKARGVLTTLEKQRALERVIYDAVSAPKRNWAASKDGDIVLHDVHSILFHVWGSITFAIVGDIKENEMVMHTVLRCIVDALQRILKTQDITHKGILEKYDALVLAVDEVIDDGIVLETSAQNVADDVAPFMADAETDTARSALSKVNEYLKENL | soluble |
| MFTYSLNLKLKTDRNFFGPGVVEVLQKIQQTGSLNLAAKEMKMSYNKAWRIVRVAEEELSFPLIIKSVGGCNGGGSIVTDQGKELIDQYLLFEKKVYQQVEACFEEIFKEQDVVSEELK | not soluble |
| SNGRADFREPNAQVSRPIPDIGGGYIPTEEEWRLFAECHEECFWFRSVPLAATSMLITQGLISKGILSSHPKYGSIPKLIFACIVGYFAGKLSYVKTCQEKFKKLENSPLGEALRSGELRRSLPPGHYTQKPKYDSNVSGQSSFGTSPAADNIEKETLPRYEPIPFSASMNESTPTGITDHIAQGPDPNLEDSPKRKSVTYEELRNKNRESYGVTLSHKTDPSVRPMQERGPQKEVKVNKYGDTWDE | soluble |
| MSDNNDRMYELEYPSPEVSGQTAGGPTLIVALQGYADAGHAVESSSSHLMDALDHRLIASFNNDELIDYRSRRPVVVIEHNEVTSMDELNLGLHVVRDNDNKPFLMLSGPEPDLRWGDFSNAVVDLVEKFGVENTICLYAAPMTVPHTRPTVVTAHGNSTDRLKDQVSLDTRMTVPGSASLMLEKLLKDKGKNVSGYTVHVPHYVSASPYPAATLKLLQSIADSADLNLPLLALERDAEKVHRQLMEQTEESSEIQRVVGALEQQYDSELERYRNRHPQAVMPGESELPSGDEIGAEFEKFLADLDDQGGSDHKETPEA | soluble |
| GPGSMLRPTCPVAKNLTSFATKGTMRGGIPRIYYTWMKPGSATRRRFEKMRNPFVNLETGTSLYFRDTRDSAEAVAHAADSKGLKGMDNGVDLYNEYKIVPDLYPEGFQWKHKLNTEYNQWRSNTWLTPELIPQEHRGRFLCNFQLNIVAYDMRVVKFSPKDHRQWIYCVLYVGTGKGIAGFGRAVAPSTQEARNEAIREAFSNIIAVDLEQEGPMYPVRINADGARVLLYPARRIIANFRVADILCAFGFQNAGCKINLKASNNPKAPTHTVEGVFEAVKALRSVSEIAASRGKVPHSLVYNIYPYLEEMRRRKGMMAMHPPGKDGIFMPNRVVDNRMPDHLKKGYYDDVYWKDFFAGSKEQLNEPKMGLRGDELRAQLEESQGRTAKRSNRRTLDDVLRRLGKTSRDLGALQVVNPRLDAKLPTHMKRNYLLH | not soluble |
| MSLANRMPTPGSLAAFLKDRRTRLDPASFGFSGRRRTPGLRREEVAQRANISPTWYTWLEQGRGGAPSADVLNRIAKGLLLTEAEREHLFMLGLGRPPEVRYRGDEGVSPRLQRLIDTLEASPALVKTATWDVVAWNRAAEIVLTDYGTIPAGRRNILRFMFLTPHIRAKQHDWENLARFVVGAFRADAARAGAVSEVTQLVDELCSGSAEFATLWQENDVLAHGDGTKRLKHPELGDIELEYSSFAVDGRPDLNLTVYNPVDSEVADRIRSLAKRLREGHHHHHH | soluble |
| GMKSSQPFIYEAHAARVVFGAGSSSQVAAEVERLGAKRALVLCTPNQQAEAERIADLLGPLSAGVYAGAVMHVPIESARDATARAREAGADCAVAVGGGSTTGLGKAIALETGMPIVAIPTTYAGSEVTPVYGLTEAGTKRTGRDPRVLPRTVIYDPALTVGLPRGLSVTSALNAIAHAAEGLYARDANPVMSLMAEEGIRALAAGIPAVFNDPADLDARSQCLYGAWLCGTVLGGVGMALHHKLCHTLGGSFNLPHAETHTIVLPHALAYNAAAVPEAMARIRRATGAGEQSAAATLFDLAQRHGAPVALRDIGMREEDLDRAADIALASPYWNPRPIEREPIRALLQAAYEGVRPD | soluble |
